Results from publication PMC8298602, “14-3-3-protein regulates Nedd4-2 by modulating interactions between HECT and WW domains” (Communications Biology, 2021).
Residue numbers refer to the chain shown, from its start.

T1: 14-3-3β (human, UniProt P31946 1-246)
T1 construct: 14-3-3 protein beta, human
T1 sequence (looked up): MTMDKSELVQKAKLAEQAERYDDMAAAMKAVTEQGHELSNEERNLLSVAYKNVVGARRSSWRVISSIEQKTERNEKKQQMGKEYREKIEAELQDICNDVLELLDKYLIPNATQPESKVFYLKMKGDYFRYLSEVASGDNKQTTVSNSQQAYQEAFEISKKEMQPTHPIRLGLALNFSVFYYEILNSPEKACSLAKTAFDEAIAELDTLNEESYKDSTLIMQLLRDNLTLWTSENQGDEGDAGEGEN

T2: 14-3-3τ (human, UniProt P27348 1-245)
T2 construct: 14-3-3 protein tau (theta), human
T2 sequence (looked up): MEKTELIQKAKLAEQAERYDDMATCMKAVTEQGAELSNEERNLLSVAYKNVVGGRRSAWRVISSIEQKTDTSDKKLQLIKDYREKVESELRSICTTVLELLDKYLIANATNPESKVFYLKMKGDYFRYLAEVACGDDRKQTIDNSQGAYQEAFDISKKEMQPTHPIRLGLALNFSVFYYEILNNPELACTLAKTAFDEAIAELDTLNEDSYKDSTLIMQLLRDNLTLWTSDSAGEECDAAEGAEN

T3: 14-3-3ζ (human, UniProt P63104 1-245)
T3 construct: 14-3-3 protein zeta, human
T3 sequence (looked up): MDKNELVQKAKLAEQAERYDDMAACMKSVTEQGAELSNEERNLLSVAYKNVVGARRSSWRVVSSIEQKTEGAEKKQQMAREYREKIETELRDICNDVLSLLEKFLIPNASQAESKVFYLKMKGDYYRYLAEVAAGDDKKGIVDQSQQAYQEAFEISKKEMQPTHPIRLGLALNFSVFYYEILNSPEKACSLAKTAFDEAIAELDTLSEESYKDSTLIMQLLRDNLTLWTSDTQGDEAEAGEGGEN

T4: 14-3-3ε (human, UniProt P62258 1-255)
T4 construct: 14-3-3 protein epsilon, human
T4 sequence (looked up): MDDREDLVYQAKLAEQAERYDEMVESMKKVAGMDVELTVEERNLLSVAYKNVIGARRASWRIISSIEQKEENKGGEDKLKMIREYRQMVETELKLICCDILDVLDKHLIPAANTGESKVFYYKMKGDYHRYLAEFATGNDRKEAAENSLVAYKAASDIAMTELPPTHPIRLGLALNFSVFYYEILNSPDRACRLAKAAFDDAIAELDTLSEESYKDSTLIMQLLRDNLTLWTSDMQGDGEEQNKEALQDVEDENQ

T5: 14-3-3γ (human, UniProt P61981 2-247)
T5 construct: 14-3-3 protein gamma, human
T5 sequence: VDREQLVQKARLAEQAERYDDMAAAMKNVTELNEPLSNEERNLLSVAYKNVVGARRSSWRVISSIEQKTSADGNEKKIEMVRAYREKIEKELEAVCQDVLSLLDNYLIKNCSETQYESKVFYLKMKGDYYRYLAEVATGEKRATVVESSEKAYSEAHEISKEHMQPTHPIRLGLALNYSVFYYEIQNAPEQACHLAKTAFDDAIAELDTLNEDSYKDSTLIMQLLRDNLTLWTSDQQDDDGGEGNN

T6: 14-3-3σ (human, UniProt P31947 1-248)
T6 construct: 14-3-3 protein sigma, human
T6 sequence (looked up): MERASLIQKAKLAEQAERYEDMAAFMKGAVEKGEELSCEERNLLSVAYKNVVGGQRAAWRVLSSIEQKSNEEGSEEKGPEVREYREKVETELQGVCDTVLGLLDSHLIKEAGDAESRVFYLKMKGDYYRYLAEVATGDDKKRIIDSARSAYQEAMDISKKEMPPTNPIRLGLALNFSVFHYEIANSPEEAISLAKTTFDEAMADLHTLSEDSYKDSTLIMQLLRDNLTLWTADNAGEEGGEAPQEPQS

B1: 14-3-3η (natural protein, human)
chain: MGDREQLLQRARLAEQAERYDDMASAMKAVTELNEPLSNEDRNLLSVAYKNVVGARRSSWRVISSIEQKTMADGNEKKLEKVKAYREKIEKELETVCNDVLSLLDKFLIKNCNDFQYESKVFYLKMKGDYYRYLAEVASGEKKNSVVEASEAAYKEAFEISKEQMQPTHPIRLGLALNFSVFYYEIQNAPEQACLLAKQAFDDAIAELDTLNEDSYKDSTLIMQLLRDNLTLWTSDQQDEEAGEGN
notes: 14-3-3 protein eta, human; also called 14-3-3 protein (eta isoform); 14-3-3η dimer
B2: phosphorylated Nedd4-2^335–455 (domain or fragment, human, UniProt Q96PU5 335-455, looked up)
chain: SSRLRSCSVTDAVAEQGHLPPPSAPAGRARSSTVTGGEEPTPSVAYVHTTPGLPSGWEERKDAKGRTYYVNHNNRTTTWTRPIMQLAEDGASGSATNSNNHLIEPQIRRPRSLSSPTVTLS
modifications: phosphoserine at 342, phosphothreonine at 367, phosphoserine at 448
notes: source: E. coli BL21 (DE3), purified (Chelating Sepharose, TEV cleavage, Superdex 75), phosphorylated by PKA in vitro; not shown: His6, N-terminal, cleaved; GB1 domain of protein G, N-terminal, cleaved
B3: Nedd^335-455pT367 + pS448 (domain or fragment, human, UniProt Q96PU5 335-455, looked up)
chain: B2 chain with S8A
modifications: phosphothreonine at 367, phosphoserine at 448
notes: as for B2
B4: Nedd^335-455pS342 (domain or fragment, human, UniProt Q96PU5 335-455, looked up)
chain: B2 chain with T33A, S114A
modifications: phosphoserine at 342
notes: as for B2
B5: Nedd^335-455pS342 + pS448 (domain or fragment, human, UniProt Q96PU5 335-455, looked up)
chain: B2 chain with T33A
modifications: phosphoserine at 342, phosphoserine at 448
notes: The same variant was used in native PAGE, SV-AUC and for the crystal with 14-3-3ηΔC; source: E. coli BL21 (DE3), purified (Chelating Sepharose, TEV cleavage, Superdex 75), phosphorylated by PKA in vitro; not shown: His6, N-terminal, cleaved; GB1 domain of protein G, N-terminal, cleaved
B6: Nedd^335-455pS342 + pT367 (domain or fragment, human, UniProt Q96PU5 335-455, looked up)
chain: B2 chain with S114A
modifications: phosphoserine at 342, phosphothreonine at 367
notes: as for B2
B7: Nedd^335-455pT367 (domain or fragment, human, UniProt Q96PU5 335-455, looked up)
chain: B2 chain with S8A, S114A
modifications: phosphothreonine at 367
notes: as for B2
B8: Nedd^335-455pS448 (domain or fragment, human, UniProt Q96PU5 335-455, looked up)
chain: B2 chain with S8A, T33A
modifications: phosphoserine at 448
notes: also called pSer^448; source: E. coli BL21 (DE3), purified (Chelating Sepharose, TEV cleavage, Superdex 75), phosphorylated by PKA in vitro; not shown: His6, N-terminal, cleaved; GB1 domain of protein G, N-terminal, cleaved

How the values were obtained:
[1] = molecular target: the molecule itself; test: SEC-SAXS; Superdex 200 Increase 5/150 GL, 20 mM Tris-HCl pH 7.5, 150 mM NaCl, 1 mM TCEP, 3% glycerol, 293.15 K; loaded 2.2 mg/ml Nedd4-2^186–975, 2 mg/ml 14-3-3η, 8.9 mg/ml complex (1:2, 60 μM)
14-3-3β = molecular target: T1, 14-3-3β; test: native gel or EMSA; 12% native TBE-PAGE; 240 pmol of 14-3-3 and 120 pmol of the Nedd4-2 construct loaded; conditions: both partners purified
14-3-3τ = molecular target: T2, 14-3-3τ; test: as above; conditions: both partners purified
14-3-3ζ = molecular target: T3, 14-3-3ζ; test: as above; conditions: both partners purified
14-3-3ε = molecular target: T4, 14-3-3ε; test: as above; conditions: both partners purified
14-3-3γ = molecular target: T5, 14-3-3γ; test: as above; conditions: both partners purified
14-3-3σ = molecular target: T6, 14-3-3σ; test: as above; conditions: both partners purified
14-3-3η [2] = molecular target: B1; test: AUC; sedimentation velocity, 20 °C, 20 mM Tris-HCl pH 7.5, 150 mM NaCl, 1 mM TCEP; 1 μM 14-3-3η with Nedd4-2^335–455 variants (0.05 – 5 μM); apparent KD, sw isotherm fitted with A + B ⇌ AB, 14-3-3η dimer + one Nedd4-2 molecule; conditions: both partners purified
14-3-3η [3] = molecular target: B1; test: native gel or EMSA; 12% native TBE-PAGE; 240 pmol of 14-3-3 and 120 pmol of the Nedd4-2 construct loaded; conditions: both partners purified

Binder: B1
stoichiometry N [1]: 2

Binder: B2
binding result (14-3-3β): binds
binding result (14-3-3τ): binds
binding result (14-3-3ζ): binds
binding result (14-3-3ε): binds
binding result (14-3-3γ): binds
binding result (14-3-3σ): binds
Kd (14-3-3η [2]): < 30 nM
stoichiometry N (14-3-3η [2]): 2 14-3-3η protomers per Nedd4-2 protomer

Binder: B3
binding result (14-3-3η [3]): binds

Binder: B4
Kd (14-3-3η [2]): 400 ± 100 nM

Binder: B5
Kd (14-3-3η [2]): < 30 nM

Binder: B6
binding result (14-3-3η [3]): binds

Binder: B7
Kd (14-3-3η [2]): 530 ± 30 nM

Binder: B8
binding result (14-3-3η [3]): binds
